Source: publication PMC6286779, “HLA-A2-Restricted Epitopes Identified from MTA1 Could Elicit Antigen-Specific Cytotoxic T Lymphocyte Response” (Journal of Immunology Research, 2018)

Legend:
[1] = system: HLA-A2.1/K^b transgenic mice; assay: IFN-γ intracellular cytokine staining, CD4+ T cells; format: in vivo; details: mice immunized with MTA1(1–283); CD3+CD8− subset
Description: (§1) To test the effects of protein, each HLA-A2.1/K^b transgenic mouse was injected subcutaneously at the base of the tail with 100 μg MTA1(1–283) or the same volume of PBS emulsified in IFA twice on days 0 and 7. On day 14, spleen lymphocytes were harvested and stimulated by peptide pool (10 μg/ml) in vitro for another 6 days. LDH, IFN-γ ELISPOT, and IFN-γ intracellular cytokine staining assays were performed on day 6 after the in vitro stimulation. E/T ratios used in the LDH assay were 12.5 : 1, 25 : 1, and 50 : 1.
(§2) To test the protein MTA1(1–283) stimulation of CTL response in vivo, IFN-γ release of induced CTLs was determined by the intracellular cytokine staining assay according to our former study. In brief, on day 14, spleen lymphocytes were harvested and stimulated by peptide pool (10 μg/ml) in vitro for another 6 days. Then, restimulated splenocytes were incubated with peptide-loaded T2 cells or T2 cells only for 3 h. Subsequently, protein transport inhibitor cocktail was added to splenocytes for another 4 h. Then, those cells were stained with Anti-mouse CD3 PerCP-eFluor® 710 (clone: 17A2, eBioscience) and Anti-mouse CD8α PE (clone: 53–6.7, eBioscience) at 4°C for 30 min. […] Those cells were washed twice by permeabilization buffer and analyzed by flow cytometry.

[2] = system: PBMCs from HLA-A*02+ healthy donors; assay: IFN-γ ELISPOT of CTLs induced in vitro; format: cell-based, human; details: PBMCs stimulated with MTA1(1–283) once a week for 21 days; stimulators T2 cells with peptide pool 50 μg/ml; n = 4
Description: (§3) CTL induction in vitro was conducted according to the procedures previously described. Briefly, PBMCs from eight HLA-A^∗02^+ healthy donors were isolated using Ficoll-Paque density gradient centrifugation and resuspended in RPMI 1640 medium supplemented with 10% FBS. Then, PBMCs were stimulated three times (once a week) with the indicated peptides (10 μg/ml) or protein MTA1(1–283) (at final concentrations of 0, 1, 10, 30, and 50 μg/ml) for 21 days. Human recombinant cytokine interleukin-2 (IL-2) (50 U/ml) was added on day 3 and 1 day after each stimulation. The cytotoxic assay (lactate dehydrogenase (LDH) assay) and IFN-γ secretion enzyme-linked immunospot (ELISPOT) assay were performed on day 21.
The ELISPOT assay was performed using a commercial kit (Dakewe, China) according to the procedures previously described. Briefly, T2 cells incubated with/without candidate peptide (50 μg/ml) were used as the stimulating cells, effector cells (1 × 10^5) and stimulator cells (peptide-pulsed T2 cells or T2 cells only, 1 × 10^5) were seeded into the 96-well plate precoated with an anti-human (or anti-mouse) IFN-γ antibody. After incubation at 37°C for 18 h, cells were removed, and plates were processed for analysis as instructed. The spot number was determined automatically using a computer-assisted spot analyzer (Dakewe, China).

[3] = system: HLA-A2.1/K^b transgenic mice; assay: IFN-γ intracellular cytokine staining, CD8+ T cells; format: in vivo; details: mice immunized with MTA1(1–283); splenocytes restimulated with peptide pool; T2 cells pulsed with each peptide; vs PBS, P < 0.001
Description: as §1, §2

[4] = system: HLA-A2.1/K^b transgenic mice; assay: Serum IFN-γ ELISA after immunization; format: in vivo; details: mice immunized with 100 μg/ml MTA1(1–283) in IFA days 0 and 7; serum day 14; vs PBS, P < 0.001; n = 5
[5] = system: SW620 cells (HLA-A2+, MTA1+); assay: LDH cytotoxicity assay, CTLs induced in HLA-A2.1/Kb transgenic mice; format: in vivo, human; details: mice immunized with MTA1(1–283) days 0 and 7; E/T 50 : 1 and 25 : 1; significant vs PBS
Description: In vivo induction of peptide-specific CTLs was performed as previously described. Briefly, peptide (100 μg) and the IA^b-restricted HBV-core128 T helper epitope (140 μg) emulsified in incomplete Freund's adjuvant (IFA) were used to subcutaneously immunize at the base of the tail of HLA-A2.1/K^b transgenic mice three times on days 0, 5, and 10. On day 11, all mice were sacrificed through cervical dislocation. Spleen lymphocytes were isolated and restimulated once with 10 μg/ml peptide and 10 U/ml mIL-2 in vitro for an additional 6 days. LDH and IFN-γ ELISPOT assays were performed on day 6 after in vitro stimulation. […]
as §1
(§4) Cytotoxic activity of induced T cells was tested based on the quantitation of LDH release using the nonradioactive cytotoxicity assay kit (Promega, USA) at the gradient E/T ratio [29, 31]. Target cells which expressed different levels of MTA1 or peptide-pulsed T2 cells were used as target cells. The anti-human HLA-A2 antibody (BB7.2) was added 30 min before adding effector cells to determine the HLA restriction. Target cells (5 × 10^3/well) were cocultured with the effector cells at 37°C for 4 h. The percentage of specific lysis of the target cells was determined using the equation: percentage of specific lysis = [(experimental release − effector spontaneous release − target spontaneous release)/(target maximum release − target spontaneous release)] × 100.

[6] = system: SW620 (HLA-A2+, MTA1+); assay: LDH cytotoxicity assay, CTLs induced in vitro; format: cell-based, human; details: PBMCs induced by 50 μg/ml MTA1(1–283); E/T 50 : 1; LDH assay; n = 4
Description: as §3, §4

B1: MTA1(1–283): recombinant fragment of MTA1, first 283 amino acids, expressed in E. coli from pET28a, containing the predominant epitopes (protein, UniProt Q13330 1-283, looked up, fragment)
chain: MAANMYRVGDYVYFENSSSNPYLIRRIEELNKTANGNVEAKVVCFYRRRDISSTLIALADKHATLSVCYKAGPGADNGEEGEIEEEMENPEMVDLPEKLKHQLRHRELFLSRQLESLPATHIRGKCSVTLLNETESLKSYLEREDFFFYSLVYDPQQKTLLADKGEIRVGNRYQADITDLLKEGEEDGRDQSRLETQVWEAHNPLTDKQIDQFLVVARSVGTFARALDCSSSVRQPSLHMSAAAASRDITLFHAMDTLHKNIYDISKAISALVPQGGPVLCRD
- percentage of IFN-γ+ CD4+ T cells [1]: a certain percentage of IFN-γ ^+ CD4^+ T cells
- IFN-γ secretion of protein-induced CTLs, ELISPOT [2]: can secrete IFN-γ
- percentage of IFN-γ+ CD8+ T cells [3]: a higher percentage of IFN-γ ^+ CD8^+ T cells compared with the PBS group
- IFN-γ secretion in vivo (serum IFN-γ, ELISA) [4]: secreted more IFN-γ compared with the PBS control group
- lysis of SW620 tumor cells by T cells induced in vivo by protein [5]: could kill SW620 tumor cells
- rate of lysis of SW620 cells by protein-induced CTLs [6]: 50.01%
